The target of this assay is lymphocyte-derived soluble LIGHT (TNFSF 14) (human (endogenous in PBMC)). Briefly: SEC. In general terms: Size exclusion chromatography separates by hydrodynamic size, large species first.

One may read the stoichiometry N as a count of units in the complex or per binding partner.

In turn, “lymphocyte-derived soluble LIGHT (TNFSF 14) (ligand)” came in with a stoichiometry N of 3.
